This is an account of results in US20250320281A1.

For test [1], the target named is HIV-1 Env of pseudovirus MGRM-AG-008 (clade CRF_AG) (HIV-1). In words: cell-based or functional assay.
Test [2] deals with HIV-1 Env of pseudovirus MGRM-F1-015 (HIV-1). As to the kind of experiment: cell-based or functional assay.
The target in test [3] is HIV-1 Env of isolate LAVI_C3 (HIV-1). As to the kind of experiment: cell-based or functional assay.
Test [4] has as its target HIV-1 Env of isolate NL43, clade B, on pseudovirus (HIV-1). In words: cell-based or functional assay.
Test [5] addresses HIV-1 92BR020 envelope glycoprotein (Env) on pseudovirus (HIV-1). As to the kind of experiment: cell-based or functional assay.
The target in test [6] is HIV-1 Env of isolate VLGCB3, clade B, on pseudovirus (HIV-1). In words: cell-based or functional assay.
The target in test [7] is HIV-1 Env of isolate MGRM-D-012 (clade D pseudovirus) (HIV-1). As to the kind of experiment: cell-based or functional assay.
Test [8] concerns the target HIV-1 Env of pseudovirus MGRM-G-027 (HIV-1, clade G isolate MGRM-G-027). As to the kind of experiment: cell-based or functional assay.
Test [9] concerns the target HIV-1 envelope glycoprotein (Env) of isolate 93RW029, clade A (HIV-1). In words: cell-based or functional assay.
In test [10] the target is HIV-1 Env of isolate APV_17 (subtype B pseudovirus) (HIV-1). In words: cell-based or functional assay.
Test [11] deals with HIV-1 JRFL Env (pseudovirus, clade B) (HIV-1). In words: cell-based or functional assay.
The target of test [12] is HIV-1 Env of isolate CAAN.A2 (subtype B pseudovirus) (HIV-1). In words: cell-based or functional assay.
The target of test [13] is HIV-1 APV6 Env (pseudovirus, clade B) (HIV-1). In words: cell-based or functional assay.
Test [14] deals with HIV-1 93UG077 Env (pseudovirus, clade A) (HIV-1). As to the kind of experiment: cell-based or functional assay.
Test [15] concerns the target HIV-1 Env of isolate MGRM-D-001 (clade D), on pseudovirus (HIV-1). In words: cell-based or functional assay.
Test [16] deals with HIV-1 Env of isolate MGRM-D-012 (pseudovirus) (HIV-1). As to the kind of experiment: cell-based or functional assay.
Test [17] concerns the target HIV-1 Env of isolate MGRM-Chronic-B-024 (subtype B pseudovirus) (HIV-1). As to the kind of experiment: cell-based or functional assay.
For test [18], the target named is HIV-1 Env of isolate MGRM-Chronic-B-004 (subtype B pseudovirus) (HIV-1). In words: cell-based or functional assay.
Test [19] addresses HIV-1 93UG077 Env (pseudovirus) (HIV-1). In words: cell-based or functional assay.
Test [20] concerns the target HIV-1 Env of isolate SC422661.8 (subtype B pseudovirus) (HIV-1). In words: cell-based or functional assay.
The target in test [21] is HIV-1 MGRM-D-001 Env (pseudovirus) (HIV-1). As to the kind of experiment: cell-based or functional assay.
In test [22] the target is HIV-1 Env of isolate 92UG001 (pseudovirus) (HIV-1). In words: cell-based or functional assay.
Test [23] addresses HIV-1 Env of isolate MGRM-Chronic-B-002 (subtype B pseudovirus) (HIV-1). As to the kind of experiment: cell-based or functional assay.
For test [24], the target named is HIV-1 Env of isolate MGRM-F1-013 (HIV-1). As to the kind of experiment: cell-based or functional assay.
Test [25] deals with HIV-1 Env of isolate MGRM-D-028 (pseudovirus) (HIV-1). In words: cell-based or functional assay.
The target of test [26] is HIV-1 Env of isolate MGRM-AG-005 (clade AG), on pseudovirus (HIV-1). In words: cell-based or functional assay.
For test [27], the target named is HIV-1 Env of isolate MGRM-Chronic-B-001 (subtype B pseudovirus) (HIV-1). In words: cell-based or functional assay.
The target of test [28] is aMLV envelope (pseudovirus, negative control). As to the kind of experiment: cell-based or functional assay.
Test [29] deals with JR-FL gp120 ΔV1/ΔV2 (HIV-1). As to the kind of experiment: ELISA, antigen-coated wells.

Bounds are passed on as bounds.

Chain of 1443_C16 (PG16) (TCN-116) (antibody) (VH): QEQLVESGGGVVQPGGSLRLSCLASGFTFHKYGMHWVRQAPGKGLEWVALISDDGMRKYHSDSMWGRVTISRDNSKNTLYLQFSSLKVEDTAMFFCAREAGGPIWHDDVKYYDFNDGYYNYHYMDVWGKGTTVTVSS
Chain of 1443_C16 (PG16) (TCN-116) (antibody) (VL): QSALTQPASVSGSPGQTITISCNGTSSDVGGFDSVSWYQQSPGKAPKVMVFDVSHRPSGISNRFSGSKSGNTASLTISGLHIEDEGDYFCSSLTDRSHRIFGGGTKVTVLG

As for 2F5 (antibody), the IC50 in [1] is 0.54 µg/mL; in [3], over 50 µg/mL. Also, the IC50 (µg/ml), pseudovirus neutralization in [2] is 0.1 µg/mL; in test [4] it was 2.02 µg/mL; in [6] it was over 50 µg/mL; in test [7], 1.7 µg/mL; in test [8] it was 0.28 µg/mL; in test [9] it was over 50 µg/mL. In [5], the IC50, pseudovirus neutralization was over 50 µg/mL.

Turning to 2G12 (antibody), the IC50 in test [1] and in [3] was over 50 µg/mL in each case. Further, the IC50 (µg/ml), pseudovirus neutralization was over 50 µg/mL in [2]; 0.49 µg/mL in [4]; 7.9 µg/mL in [6]; over 50 µg/mL in [7]; over 50 µg/mL in test [8]; over 50 µg/mL in test [9]. The IC50, pseudovirus neutralization in test [5] turned out to be 2.26 µg/mL.

On to 4E10 (antibody), for which the figures for the half-maximal inhibitory concentration (IC50) in test [1] and in test [3] were 1.48 µg/mL and 2.85 µg/mL, respectively. In addition, the IC50 (µg/ml), pseudovirus neutralization in test [2] turned out to be 0.53 µg/mL; in test [4], 4.67 µg/mL; in test [6], 5.76 µg/mL; in test [7], 1.13 µg/mL; in test [8], 1.19 µg/mL; in [9], 15.5 µg/mL. The IC50, pseudovirus neutralization in [5] was found to be 41.4 µg/mL.

With 1443_C16 (PG16) (TCN-116) (antibody), the IC50 in test [1] came out at 0.002 µg/mL; in test [3] it was 9.55 µg/mL. For the same substance, the IC50 (µg/ml), pseudovirus neutralization in test [2] is over 50 µg/mL; in [4], 0.02 µg/mL; in [6] it was 0.4 µg/mL; in test [7], 0.35 µg/mL; in test [8] it was 0.01 µg/mL; in test [9] it was 3.83 µg/mL. In [5], this substance displayed an IC50, pseudovirus neutralization of over 50 µg/mL.

As to 1495_C14 (PGC14) (antibody), the 50% inhibitory concentration (IC50) in [1] came out at 45 µg/mL; in test [3], 12 µg/mL. Moreover, the IC50 (µg/ml), pseudovirus neutralization was over 50 µg/mL in test [2]; 40 µg/mL in test [4]; 21 µg/mL in test [6]; over 50 µg/mL in test [7]; over 50 µg/mL in test [8]; 42 µg/mL in [9]. For the same substance, the IC50, pseudovirus neutralization in test [5] came to 0.637 µg/mL.

On to 5141_B17 (PGT-126) (antibody), for which the IC50 (µg/mL), pseudovirus neutralization in test [10] was 0.353 µg/mL; in [12], 0.273 µg/mL; in test [17] it was over 50 µg/mL; in test [18] it was 0.01 µg/mL; in test [20] it was 0.119 µg/mL; in [23] it was 0.078 µg/mL. Moreover, the IC50 (µg/mL), pseudovirus neutralization in test [24] and in test [27] was over 50 µg/mL throughout. The IC50 neutralization worked out at 0.014 µg/mL in [11], 0.0249 µg/mL in test [13] and 0.0256 µg/mL in test [14]. Also, the IC50, pseudovirus neutralization in test [15] is 0.0639 µg/mL; in test [16] it was over 50 µg/mL; in test [5], 0.0163 µg/mL; in test [22] it was over 50 µg/mL; in [25], over 50 µg/mL; in test [26], 1.35 µg/mL. The same substance gave an IC80 (pseudovirus neutralization) in test [5] of 0.0457 µg/mL. Further, in test [5], the IC90 (pseudovirus neutralization) worked out at 0.0846 µg/mL. For the same substance, in test [5], the IC95 (pseudovirus neutralization) was 0.152 µg/mL. Also, the neutralization IC50 (pseudovirus) was 0.0256 µg/mL in test [19], 0.0639 µg/mL in test [21] and over 10 µg/mL in [28]. In test [29], this substance gave an EC50 of 0.3 µg/mL.

Regarding b12 (antibody), the IC50 in test [1] is over 50 µg/mL; in [3], 0.94 µg/mL. Also, the IC50 (µg/ml), pseudovirus neutralization in test [2] was over 50 µg/mL; in test [4] it was 0.17 µg/mL; in test [6], 0.15 µg/mL; in [7] it was 0.13 µg/mL; in [8], over 50 µg/mL; in test [9] it was over 50 µg/mL. The substance further registered an IC50, pseudovirus neutralization in test [5] of 27.5 µg/mL.
